In patent US7005505:
pIC50: −log10 of the molar value. Read-outs that look alike come from different tables or passages of the source.

How the values were obtained:
[1] = molecular target: KDR receptors on endothelial cells (bovine); assay: cell-based or functional assay
[2] = molecular target: KDR receptors on endothelial cells (bovine); assay: cell-based or functional assay; remark: listed apart in the source
KDR-IgG [3] = molecular target: KDR-IgG (UniProt P35968); assay: competition with 125I-VEGF165 for KDR-IgG, radioligand plate assay
KDR-IgG, sequence (P35968 20-764): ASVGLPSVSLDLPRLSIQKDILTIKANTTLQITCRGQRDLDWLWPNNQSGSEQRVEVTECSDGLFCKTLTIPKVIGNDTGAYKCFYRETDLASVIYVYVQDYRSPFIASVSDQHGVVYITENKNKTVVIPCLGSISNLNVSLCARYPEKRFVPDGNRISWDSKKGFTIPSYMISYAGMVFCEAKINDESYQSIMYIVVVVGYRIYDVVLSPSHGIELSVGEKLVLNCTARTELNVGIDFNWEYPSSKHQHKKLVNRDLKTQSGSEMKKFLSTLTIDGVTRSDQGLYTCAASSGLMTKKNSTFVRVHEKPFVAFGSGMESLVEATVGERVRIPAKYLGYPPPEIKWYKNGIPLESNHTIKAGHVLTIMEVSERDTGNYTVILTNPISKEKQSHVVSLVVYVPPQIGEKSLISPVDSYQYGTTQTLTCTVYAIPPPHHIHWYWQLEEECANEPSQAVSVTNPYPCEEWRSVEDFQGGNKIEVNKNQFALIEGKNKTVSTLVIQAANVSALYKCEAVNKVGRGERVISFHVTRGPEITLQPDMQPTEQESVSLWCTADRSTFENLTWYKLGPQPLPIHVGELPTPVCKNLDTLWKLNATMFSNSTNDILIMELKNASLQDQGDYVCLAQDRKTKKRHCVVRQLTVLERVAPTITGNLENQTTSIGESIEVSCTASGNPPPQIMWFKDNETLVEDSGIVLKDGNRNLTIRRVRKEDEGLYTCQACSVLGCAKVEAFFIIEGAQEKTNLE

FLT-1 IgG [4] = molecular target: FLT-1 IgG (UniProt P17948); assay: competition with 125I-VEGF165 for FLT-1-IgG, radioligand plate assay, no heparin
FLT-1 IgG, sequence (P17948 27-758): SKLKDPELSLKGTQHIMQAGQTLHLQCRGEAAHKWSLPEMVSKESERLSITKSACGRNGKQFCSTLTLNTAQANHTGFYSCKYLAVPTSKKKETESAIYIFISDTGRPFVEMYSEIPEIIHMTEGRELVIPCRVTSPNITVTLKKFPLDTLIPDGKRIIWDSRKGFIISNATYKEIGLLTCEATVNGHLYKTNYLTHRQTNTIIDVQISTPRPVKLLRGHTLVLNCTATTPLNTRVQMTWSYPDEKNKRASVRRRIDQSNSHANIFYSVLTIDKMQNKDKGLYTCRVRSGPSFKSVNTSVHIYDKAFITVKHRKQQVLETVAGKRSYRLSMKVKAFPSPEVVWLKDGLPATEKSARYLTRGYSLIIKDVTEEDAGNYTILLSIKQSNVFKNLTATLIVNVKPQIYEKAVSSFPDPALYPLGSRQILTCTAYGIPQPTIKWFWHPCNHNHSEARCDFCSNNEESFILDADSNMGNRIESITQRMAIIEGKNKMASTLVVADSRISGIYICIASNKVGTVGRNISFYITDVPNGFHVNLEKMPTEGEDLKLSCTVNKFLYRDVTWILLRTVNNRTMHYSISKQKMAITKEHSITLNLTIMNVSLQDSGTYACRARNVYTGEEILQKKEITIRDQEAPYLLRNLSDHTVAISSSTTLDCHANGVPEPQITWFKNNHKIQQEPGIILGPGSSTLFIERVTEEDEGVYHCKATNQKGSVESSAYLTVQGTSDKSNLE

KDR-IgG [5] = molecular target: KDR-IgG (UniProt P35968); assay: competition with 125I-VEGF165 for KDR-IgG, radioligand plate assay, no heparin
FLT-1 IgG [6] = molecular target: FLT-1 IgG (UniProt P17948); assay: competition with 125I-VEGF165 for FLT-1-IgG, radioligand plate assay

KDR receptors on endothelial cells (bovine), sequence (P12820 29-1306): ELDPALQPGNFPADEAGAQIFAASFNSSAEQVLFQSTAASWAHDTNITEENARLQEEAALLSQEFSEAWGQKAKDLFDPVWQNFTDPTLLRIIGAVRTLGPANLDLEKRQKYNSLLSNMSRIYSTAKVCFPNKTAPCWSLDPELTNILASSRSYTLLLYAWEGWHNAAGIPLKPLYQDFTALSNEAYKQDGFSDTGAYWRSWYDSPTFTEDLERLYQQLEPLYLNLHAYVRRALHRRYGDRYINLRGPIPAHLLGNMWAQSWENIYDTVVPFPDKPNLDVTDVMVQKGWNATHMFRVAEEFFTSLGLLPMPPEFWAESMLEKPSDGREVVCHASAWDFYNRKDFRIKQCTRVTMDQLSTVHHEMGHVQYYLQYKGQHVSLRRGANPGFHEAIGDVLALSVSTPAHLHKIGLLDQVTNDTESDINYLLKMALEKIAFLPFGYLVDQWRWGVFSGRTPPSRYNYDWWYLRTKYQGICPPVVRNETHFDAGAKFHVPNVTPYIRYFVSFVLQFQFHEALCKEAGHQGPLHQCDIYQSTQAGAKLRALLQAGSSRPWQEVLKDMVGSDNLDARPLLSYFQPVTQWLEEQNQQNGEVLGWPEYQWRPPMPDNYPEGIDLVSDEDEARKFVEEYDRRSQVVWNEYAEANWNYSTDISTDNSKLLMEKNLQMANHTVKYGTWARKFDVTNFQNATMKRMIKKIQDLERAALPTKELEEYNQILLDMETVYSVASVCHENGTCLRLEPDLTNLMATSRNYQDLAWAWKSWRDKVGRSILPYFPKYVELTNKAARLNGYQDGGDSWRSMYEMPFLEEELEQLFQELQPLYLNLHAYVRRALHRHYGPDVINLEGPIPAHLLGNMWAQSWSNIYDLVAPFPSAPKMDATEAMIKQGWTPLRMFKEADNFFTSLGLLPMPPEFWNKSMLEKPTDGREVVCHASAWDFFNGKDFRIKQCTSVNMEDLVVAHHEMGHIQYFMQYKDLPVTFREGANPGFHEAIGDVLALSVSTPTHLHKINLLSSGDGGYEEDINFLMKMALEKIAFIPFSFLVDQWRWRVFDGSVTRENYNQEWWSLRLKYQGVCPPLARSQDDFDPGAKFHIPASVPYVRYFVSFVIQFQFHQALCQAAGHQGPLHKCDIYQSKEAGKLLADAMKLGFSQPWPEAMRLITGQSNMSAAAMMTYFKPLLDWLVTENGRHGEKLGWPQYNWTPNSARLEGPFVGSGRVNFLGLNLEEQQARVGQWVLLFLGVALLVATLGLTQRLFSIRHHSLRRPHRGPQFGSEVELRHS

Half-Maximal Effective Concentration, Endothelial Cells [1]: 53 pM
Half-Maximal Effective Concentration, Endothelial Cells [2]: 2.05 ng/mL
IC50 (KDR-IgG [3]): 2.1 ng/mL
pIC50 (FLT-1 IgG [4]): 10.72
pIC50 (KDR-IgG [5]): 10.59
IC50 (FLT-1 IgG [6]): 0.73 ng/mL
Substance: K16A, D19T VEGF (from UniProt P15692 181-395) (ligand)
